Read-outs that look alike come from different tables or passages of the source.
Tests used:
[1] = target: EL222 S137Y variant (Erythrobacter litoralis HTCC2594); test: SEC-MALS
[2] = target: EL222 L120K variant (Erythrobacter litoralis HTCC2594); test: SEC-MALS
[3] = target: EL222 V41I:L52I:A79Q:V121I variant (AQTrip) (Erythrobacter litoralis HTCC2594); test: SEC-MALS
[4] = target: EL222 V41I:L52I:A79Q:V121I variant (AQTrip) (Erythrobacter litoralis HTCC2594); test: SEC-MALS; remark: listed apart in the source
[5] = target: EL222 V41I:L52I:A79Q:V121I variant (AQTrip) (Erythrobacter litoralis HTCC2594); test: SEC-MALS; remark: listed apart in the source
native gel or EMSA = target: the molecule itself; test: native gel or EMSA

Q: For EL222 S137Y variant (natural protein), which stoichiometry N [1] is on record?
A: 2

Q: EL222 L120K variant (natural protein) was tested. Which stoichiometry N [2] did it give?
A: 2

Q: With “EL222 V41I:L52I:A79Q:V121I variant (AQTrip) (natural protein)” as the molecule, how does the stoichiometry N [3] read?
A: 4

Q: And the stoichiometry N [4]?
A: 2

Q: What about the stoichiometry N [5] of the same molecule?
A: 2

B1: His6-Gβ1-tagged wild-type EL222 (natural protein, Erythrobacter litoralis HTCC2594, UniProt Q2NB98 1-225, looked up)
chain: MLDMGQDRPIDGSGAPGADDTRVEVQPPAQWVLDLIEASPIASVVSDPRLADNPLIAINQAFTDLTGYSEEECVGRNCRFLAGSGTEPWLTDKIRQGVREHKPVLVEILNYKKDGTPFRNAVLVAPIYDDDDELLYFLGSQVEVDDDQPNMGMARRERAAEMLKTLSPRQLEVTTLVASGLRNKEVAARLGLSEKTVKMHRGLVMEKLNLKTSADLVRIAVEAGI
Q: Which “stoichiometry N” value (native gel or EMSA) does the source give for B1 here?
A: 2

— paper PMC3813961 (Biochemistry, 2013)
